Ends that are not written are not given here.
Key:
[1] = measured previously; ref [20]; cited from earlier work
[2] = tested on: HeLa cells; assay: HeLa proliferation assay; assay type: cell-based, Human; settings: pH 6.0 and 7.4, treatment 3 hrs, data not shown
[3] = Reverse phase C18 HPLC elution as measure of hydrophobicity; assay type: physicochemical; settings: reverse phase C18, 30 min gradient from 99:1 A/B to 70:30 A/B, water/acetonitrile + 0.05% TFA, flow rate 1 ml/min

Substance	Log P of phalloidin-rhodamine [1]	Antiproliferative effect at either pH [2]	HPLC elution time of phallotoxins [3] [min]
phalloidin-rhodamine	-0.05		
phallacidin (AWLVDCP; also: cyclic peptide, R1 = H, R2 = COOH)		do not demonstrate an antiproliferative effect	30.3
